Laboratory results published in patent publication US20260209321A1 (SINGAPORE HEALTH SERVICES PTE, published 2026).

Tests used:
Peptide-biotin [1] = biological target: T1, Peptide-biotin; experiment: SPR Biacore 8K affinity ranking; antibody Fc-captured, Peptide-biotin analyte, 1:1 fit
T1 construct: also called antigen
Protocol: For affinity ranking, antibodies were captured on the sensor chip through Fc capture method. Peptide-biotin was used as the analyte. The surface was regenerated before the injection of another antibody. The process was repeated until all antibodies are analyzed. The off-rates of antibodies were obtained from fitting the experimental data locally to 1:1 interaction model using the Biacore 8K evaluation software. The antibodies were ranked by their dissociation rate constants (off-rates, kd). Based on the ranking result, the top 3 clones were selected.
Humanized antibodies were generated by replacing the framework regions (FRs) from mouse M4M antibody with counterparts from human, while maintaining the antibody's complementarity-determining regions (CDRs) binding regions. The antibody binding affinity of the chimeric and humanized antibodies was assessed by surface plasmon resonance (SPR) as shown in Table 1. Antibody clone A1 is the chimeric antibody and antibody clones A2-7 are humanized antibodies. Based on the results obtained from SPR, humanized clone A2 has the strongest SPR signal. For affinity ranking, antibodies were captured on the sensor chip through Fc capture method. Peptide-biotin was used as the analyte. The surface was regenerated before the injection of another antibody. The process was repeated until all antibodies are analyzed. The off-rates of antibodies were obtained from fitting the experimental data locally to 1:1 interaction model using the Biacore 8K evaluation software. The antibodies were ranked by their dissociation rate constants (off-rates, kd). Based on the ranking result, the top humanized clones were selected. […] Bolded and underlined amino acids correspond to the back mutation sites in the framework regions.

[2] = biological target: T2, human TRPM4 expressed in transfected HEK 293 cells (human, UniProt Q8TD43 1-1214); experiment: immunofluorescent staining of HEK 293 cells transfected with human TRPM4; colocalization with WGA (surface TRPM4)
T2 construct: whole, on cells; also called transient receptor potential melastatin 4

Peptide-biotin [3] = biological target: T1, Peptide-biotin; experiment: SPR Biacore 8K, purified IgG Fc-captured, Peptide-biotin analyte, 1:1 fit
Protocol: The affinity of purified antibody binding to Peptide-biotin was individually determined using a Surface Plasmon Resonance (SPR) biosensor, Biacore 8K (GE Healthcare). Antibodies were captured on the sensor chip through Fc capture method. Peptide-biotin was used as the analyte. The data of dissociation (kd) and association (ka) rate constants were obtained using Biacore 8K evaluation software. The equilibrium dissociation constants (KD) were calculated from the ratio of kd over ka.

T2 sequence (Q8TD43 whole entry): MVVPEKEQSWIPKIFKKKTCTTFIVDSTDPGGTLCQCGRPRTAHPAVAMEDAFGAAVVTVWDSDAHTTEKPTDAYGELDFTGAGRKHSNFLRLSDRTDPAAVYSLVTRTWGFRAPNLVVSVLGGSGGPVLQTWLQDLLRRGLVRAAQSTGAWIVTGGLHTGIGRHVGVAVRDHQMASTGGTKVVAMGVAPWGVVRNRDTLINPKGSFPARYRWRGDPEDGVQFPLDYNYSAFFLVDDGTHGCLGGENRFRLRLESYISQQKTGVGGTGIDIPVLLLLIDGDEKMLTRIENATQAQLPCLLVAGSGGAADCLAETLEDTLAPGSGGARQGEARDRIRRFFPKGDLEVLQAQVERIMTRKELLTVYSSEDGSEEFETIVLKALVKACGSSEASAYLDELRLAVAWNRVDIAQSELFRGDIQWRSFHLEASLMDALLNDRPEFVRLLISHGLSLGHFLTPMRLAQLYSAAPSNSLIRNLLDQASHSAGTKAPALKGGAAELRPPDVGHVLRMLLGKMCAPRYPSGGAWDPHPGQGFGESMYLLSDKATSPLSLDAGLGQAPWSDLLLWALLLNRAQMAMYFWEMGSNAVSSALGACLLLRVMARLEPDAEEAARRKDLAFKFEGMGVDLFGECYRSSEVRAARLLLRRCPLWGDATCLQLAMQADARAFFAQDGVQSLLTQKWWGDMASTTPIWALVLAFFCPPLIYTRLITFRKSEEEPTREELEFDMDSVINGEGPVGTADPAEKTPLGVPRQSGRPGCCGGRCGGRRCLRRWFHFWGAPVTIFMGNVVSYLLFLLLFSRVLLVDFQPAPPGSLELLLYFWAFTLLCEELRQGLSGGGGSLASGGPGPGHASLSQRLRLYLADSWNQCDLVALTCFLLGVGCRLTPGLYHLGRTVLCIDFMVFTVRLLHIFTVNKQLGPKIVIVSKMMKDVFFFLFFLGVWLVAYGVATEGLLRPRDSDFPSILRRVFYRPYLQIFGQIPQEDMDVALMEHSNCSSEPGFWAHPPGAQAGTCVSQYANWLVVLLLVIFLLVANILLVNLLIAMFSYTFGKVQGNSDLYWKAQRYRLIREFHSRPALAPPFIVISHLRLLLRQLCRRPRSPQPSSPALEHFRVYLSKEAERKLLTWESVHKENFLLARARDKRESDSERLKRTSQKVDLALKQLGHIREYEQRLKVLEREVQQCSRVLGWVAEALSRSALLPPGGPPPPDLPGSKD

Row | Binder | Kd (Peptide-biotin [1]) [nM] | koff (Peptide-biotin [1]) [s⁻¹] | kon (Peptide-biotin [1]) [M⁻¹ s⁻¹] | binding result [2] | Kd (Peptide-biotin [3]) [nM] | koff (Peptide-biotin [3]) [s⁻¹] | kon (Peptide-biotin [3]) [M⁻¹ s⁻¹]
1 | humanized anti-TRPM4 antibody clone A3 (VH1 + VL2) (antibody, V domains shown, Full-length IgG, IgG1 heavy chain; also called VH1 + VL2 (A3)) VH: QVQLQESGPGLVKPSQTLSLTCTVSGYSITSDYAWNWIRQHPGKGLEWIGYLSYSGVTSYNPSLKGRVTISVDTSKNQFSLKLSSVTAADTAVYYCARKGTYYRYEGSYWYFDVWGQGTTVTVSS VL: DIQMTQSPSSLSASVGDRVTITCHANQNIDVWLSWYQQKPGKAPKLLIYKTSNLHTGVPSRFSGSGSGTDFTLTISSLQPEDIATYYCQQGQSYPLTFGGGTKLEIKR | 9.81 | 0.00321 | 327000 | binds | – | – | –
2 | humanized anti-TRPM4 antibody clone A4 (VH1 + VL3) (antibody, V domains shown, Full-length IgG, IgG1 heavy chain; also called VH1 + VL3 (A4)) VH: QVQLQESGPGLVKPSQTLSLTCTVSGYSITSDYAWNWIRQHPGKGLEWIGYLSYSGVTSYNPSLKGRVTISVDTSKNQFSLKLSSVTAADTAVYYCARKGTYYRYEGSYWYFDVWGQGTTVTVSS VL: DIQMTQSPSSLSASVGDRVTITCHANQNIDVWLSWYQQKPGNAPKLLIYKTSNLHTGVPSRFSGSGSGTDFTFTISSLQPEDIATYYCQQGQSYPLTFGGGTKLEIKR | 7 | 0.00177 | 252000 | binds | 3.18 | 0.00062 | 195000
3 | humanized anti-TRPM4 antibody clone A5 (VH1 + VL4) (antibody, V domains shown, Full-length IgG, IgG1 heavy chain; also called VH1 + VL4 (A5)) VH: QVQLQESGPGLVKPSQTLSLTCTVSGYSITSDYAWNWIRQHPGKGLEWIGYLSYSGVTSYNPSLKGRVTISVDTSKNQFSLKLSSVTAADTAVYYCARKGTYYRYEGSYWYFDVWGQGTTVTVSS VL: DIQMTQSPSSLSASVGDRVTITCHANQNIDVWLSWYQQKPGNAPKLLIYKTSNLHTGVPSRFSGSGSGTDFTLTISSLQPEDIATYYCQQGQSYPLTFGGGTKLEIKR | 9.96 | 0.00217 | 217000 | binds | – | – | –
4 | humanized anti-TRPM4 antibody clone A6 (VH2 + VL1) (antibody, V domains shown, Full-length IgG, IgG1 heavy chain; also called VH2 + VL1 (A6)) VH: QVQLQESGPGLVKPSQTLSLTCTVSGYSITSDYAWNWIRQHPGKGLEWMGYLSYSGVTSYNPSLKGRVTISRDTSKNQFSLKLSSVTAADTAVYYCARKGTYYRYEGSYWYFDVWGQGTTVTVSS VL: DIQMTQSPSSLSASVGDRVTITCHANQNIDVWLSWYQQKPGKAPKLLIYKTSNLHTGVPSRFSGSGSGTDFTFTISSLQPEDIATYYCQQGQSYPLTFGGGTKLEIKR | 10.6 | 0.00195 | 184000 | binds | 4.02 | 0.000662 | 165000
5 | humanized anti-TRPM4 antibody clone A7 (VH2 + VL2) (antibody, V domains shown, Full-length IgG, IgG1 heavy chain; also called VH2 + VL2 (A7)) VH: QVQLQESGPGLVKPSQTLSLTCTVSGYSITSDYAWNWIRQHPGKGLEWMGYLSYSGVTSYNPSLKGRVTISRDTSKNQFSLKLSSVTAADTAVYYCARKGTYYRYEGSYWYFDVWGQGTTVTVSS VL: DIQMTQSPSSLSASVGDRVTITCHANQNIDVWLSWYQQKPGKAPKLLIYKTSNLHTGVPSRFSGSGSGTDFTLTISSLQPEDIATYYCQQGQSYPLTFGGGTKLEIKR | 11.5 | 0.00295 | 256000 | binds | – | – | –
6 | anti-TRPM4 chimeric antibody clone A1 (VH + VL) (antibody, V domains shown, also called VH + VL (A1)) VH: QVQLQESGPGLVKPSQSLSLTCTVTGYSITSDYAWNWIRQFPGNKLQWMGYLSYSGVTSYNPSLKGRISITRDTSKNQFFLQLSSVTPEDTATYYCARKGTYYRYEGSYWYFDVWGAGTTVTVSS VL: DIQMNQSPSSLSASLGDTITITCHANQNIDVWLSWYQQKPGNVPKLLIYKTSNLHTGVPSRFSGSGSGTDFTLTISSLQPEDIATYYCQQGQSYPLTFGGGTKLEIK | 4.61 | 0.0015 | 325000 | binds | 1.74 | 0.000543 | 312000
7 | humanized anti-TRPM4 antibody VH2 + VL3 (antibody, V domains shown, Full-length IgG) VH: QVQLQESGPGLVKPSQTLSLTCTVSGYSITSDYAWNWIRQHPGKGLEWMGYLSYSGVTSYNPSLKGRVTISRDTSKNQFSLKLSSVTAADTAVYYCARKGTYYRYEGSYWYFDVWGQGTTVTVSS VL: DIQMTQSPSSLSASVGDRVTITCHANQNIDVWLSWYQQKPGNAPKLLIYKTSNLHTGVPSRFSGSGSGTDFTFTISSLQPEDIATYYCQQGQSYPLTFGGGTKLEIKR | 10.8 | 0.00219 | 203000 | – | – | – | –
8 | humanized anti-TRPM4 antibody VH2 + VL4 (antibody, V domains shown, Full-length IgG) VH: QVQLQESGPGLVKPSQTLSLTCTVSGYSITSDYAWNWIRQHPGKGLEWMGYLSYSGVTSYNPSLKGRVTISRDTSKNQFSLKLSSVTAADTAVYYCARKGTYYRYEGSYWYFDVWGQGTTVTVSS VL: DIQMTQSPSSLSASVGDRVTITCHANQNIDVWLSWYQQKPGNAPKLLIYKTSNLHTGVPSRFSGSGSGTDFTLTISSLQPEDIATYYCQQGQSYPLTFGGGTKLEIKR | 8.62 | 0.00185 | 215000 | – | – | – | –
9 | humanized anti-TRPM4 antibody VH3 + VL1 (antibody, V domains shown, Full-length IgG) VH: QVQLQESGPGLVKPSQTLSLTCTVSGYSITSDYAWNWIRQHPGKGLQWMGYLSYSGVTSYNPSLKGRITISRDTSKNQFSLKLSSVTAADTAVYYCARKGTYYRYEGSYWYFDVWGQGTTVTVSS VL: DIQMTQSPSSLSASVGDRVTITCHANQNIDVWLSWYQQKPGKAPKLLIYKTSNLHTGVPSRFSGSGSGTDFTFTISSLQPEDIATYYCQQGQSYPLTFGGGTKLEIKR | 4.36 | 0.00149 | 342000 | – | – | – | –
10 | humanized anti-TRPM4 antibody VH3 + VL2 (antibody, V domains shown, Full-length IgG) VH: QVQLQESGPGLVKPSQTLSLTCTVSGYSITSDYAWNWIRQHPGKGLQWMGYLSYSGVTSYNPSLKGRITISRDTSKNQFSLKLSSVTAADTAVYYCARKGTYYRYEGSYWYFDVWGQGTTVTVSS VL: DIQMTQSPSSLSASVGDRVTITCHANQNIDVWLSWYQQKPGKAPKLLIYKTSNLHTGVPSRFSGSGSGTDFTLTISSLQPEDIATYYCQQGQSYPLTFGGGTKLEIKR | 4.53 | 0.00198 | 438000 | – | – | – | –
11 | humanized anti-TRPM4 antibody VH3 + VL3 (antibody, V domains shown, Full-length IgG) VH: QVQLQESGPGLVKPSQTLSLTCTVSGYSITSDYAWNWIRQHPGKGLQWMGYLSYSGVTSYNPSLKGRITISRDTSKNQFSLKLSSVTAADTAVYYCARKGTYYRYEGSYWYFDVWGQGTTVTVSS VL: DIQMTQSPSSLSASVGDRVTITCHANQNIDVWLSWYQQKPGNAPKLLIYKTSNLHTGVPSRFSGSGSGTDFTFTISSLQPEDIATYYCQQGQSYPLTFGGGTKLEIKR | 4.4 | 0.0018 | 409000 | – | – | – | –
12 | humanized anti-TRPM4 antibody VH3 + VL4 (antibody, V domains shown, Full-length IgG) VH: QVQLQESGPGLVKPSQTLSLTCTVSGYSITSDYAWNWIRQHPGKGLQWMGYLSYSGVTSYNPSLKGRITISRDTSKNQFSLKLSSVTAADTAVYYCARKGTYYRYEGSYWYFDVWGQGTTVTVSS VL: DIQMTQSPSSLSASVGDRVTITCHANQNIDVWLSWYQQKPGNAPKLLIYKTSNLHTGVPSRFSGSGSGTDFTLTISSLQPEDIATYYCQQGQSYPLTFGGGTKLEIKR | 2.22 | 0.00135 | 608000 | – | – | – | –
13 | humanized anti-TRPM4 antibody VH4 + VL1 (antibody, V domains shown, Full-length IgG) VH: QVQLQESGPGLVKPSQTLSLTCTVSGYSITSDYAWNWIRQHPGKGLQWMGYLSYSGVTSYNPSLKGRITISRDTSKNQFFLKLSSVTAADTAVYYCARKGTYYRYEGSYWYFDVWGQGTTVTVSS VL: DIQMTQSPSSLSASVGDRVTITCHANQNIDVWLSWYQQKPGKAPKLLIYKTSNLHTGVPSRFSGSGSGTDFTFTISSLQPEDIATYYCQQGQSYPLTFGGGTKLEIKR | 4.47 | 0.00136 | 305000 | – | – | – | –
14 | humanized anti-TRPM4 antibody VH4 + VL2 (antibody, V domains shown, Full-length IgG) VH: QVQLQESGPGLVKPSQTLSLTCTVSGYSITSDYAWNWIRQHPGKGLQWMGYLSYSGVTSYNPSLKGRITISRDTSKNQFFLKLSSVTAADTAVYYCARKGTYYRYEGSYWYFDVWGQGTTVTVSS VL: DIQMTQSPSSLSASVGDRVTITCHANQNIDVWLSWYQQKPGKAPKLLIYKTSNLHTGVPSRFSGSGSGTDFTLTISSLQPEDIATYYCQQGQSYPLTFGGGTKLEIKR | 4.37 | 0.00132 | 303000 | – | – | – | –
15 | humanized anti-TRPM4 antibody VH4 + VL3 (antibody, V domains shown, Full-length IgG) VH: QVQLQESGPGLVKPSQTLSLTCTVSGYSITSDYAWNWIRQHPGKGLQWMGYLSYSGVTSYNPSLKGRITISRDTSKNQFFLKLSSVTAADTAVYYCARKGTYYRYEGSYWYFDVWGQGTTVTVSS VL: DIQMTQSPSSLSASVGDRVTITCHANQNIDVWLSWYQQKPGNAPKLLIYKTSNLHTGVPSRFSGSGSGTDFTFTISSLQPEDIATYYCQQGQSYPLTFGGGTKLEIKR | 4.32 | 0.00143 | 332000 | – | – | – | –
16 | humanized anti-TRPM4 antibody VH4 + VL4 (antibody, V domains shown, Full-length IgG) VH: QVQLQESGPGLVKPSQTLSLTCTVSGYSITSDYAWNWIRQHPGKGLQWMGYLSYSGVTSYNPSLKGRITISRDTSKNQFFLKLSSVTAADTAVYYCARKGTYYRYEGSYWYFDVWGQGTTVTVSS VL: DIQMTQSPSSLSASVGDRVTITCHANQNIDVWLSWYQQKPGNAPKLLIYKTSNLHTGVPSRFSGSGSGTDFTLTISSLQPEDIATYYCQQGQSYPLTFGGGTKLEIKR | 4.43 | 0.00201 | 454000 | – | – | – | –
